In IntAct's records for PubMed 11971877:

B1: Proline-serine-threonine phosphatase-interacting protein 1 (Homo sapiens), O43586 (parent)
chain: MMPQLQFKDAFWCRDFTAHTGYEVLLQRLLDGRKMCKDMEELLRQRAQAEERYGKELVQIARKAGGQTEINSLRASFDSLKQQMENVGSSHIQLALTLREELRSLEEFRERQKEQRKKYEAVMDRVQKSKLSLYKKAMESKKTYEQKCRDADDAEQAFERISANGHQKQVEKSQNKARQCKDSATEAERVYRQSIAQLEKVRAEWEQEHRTTCEAFQLQEFDRLTILRNALWVHSNQLSMQCVKDDELYEEVRLTLEGCSIDADIDSFIQAKSTGTEPPAPVPYQNYYDREVTPLTSSPGIQPSCGMIKRFSGLLHGSPKTTSLAASAASTETLTPTPERNEGVYTAIAVQEIQGNPASPAQEYRALYDYTAQNPDELDLSAGDILEVILEGEDGWWTVERNGQRGFVPGSYLEKL
partner: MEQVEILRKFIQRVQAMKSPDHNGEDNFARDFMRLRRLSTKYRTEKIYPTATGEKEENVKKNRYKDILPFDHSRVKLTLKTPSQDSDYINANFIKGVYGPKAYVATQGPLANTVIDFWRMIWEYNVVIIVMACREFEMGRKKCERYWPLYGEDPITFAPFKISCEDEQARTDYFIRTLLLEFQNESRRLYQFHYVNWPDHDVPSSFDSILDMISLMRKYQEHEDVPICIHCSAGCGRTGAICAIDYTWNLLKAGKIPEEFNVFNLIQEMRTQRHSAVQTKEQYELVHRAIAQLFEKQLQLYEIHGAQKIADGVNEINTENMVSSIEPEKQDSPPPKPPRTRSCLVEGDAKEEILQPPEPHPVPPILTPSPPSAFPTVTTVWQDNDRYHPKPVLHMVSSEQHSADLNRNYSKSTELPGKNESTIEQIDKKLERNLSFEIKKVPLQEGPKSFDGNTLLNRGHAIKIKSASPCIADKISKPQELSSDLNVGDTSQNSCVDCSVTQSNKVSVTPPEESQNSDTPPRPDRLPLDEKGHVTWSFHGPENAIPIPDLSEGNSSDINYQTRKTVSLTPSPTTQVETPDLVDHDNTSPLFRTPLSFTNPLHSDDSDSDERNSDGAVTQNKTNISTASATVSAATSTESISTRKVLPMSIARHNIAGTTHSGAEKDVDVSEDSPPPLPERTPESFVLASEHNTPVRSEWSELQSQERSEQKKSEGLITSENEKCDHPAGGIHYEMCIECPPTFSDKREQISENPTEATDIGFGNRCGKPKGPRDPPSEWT

Variants of: B1
Details: with ptn12_human PTPN12, Q05209

Variant	effect of a mutation on the interaction
A230T	decreasing interaction
E250Q	decreasing interaction
